Test results published in PMC5791736, “CCPG1 Is a Non-canonical Autophagy Cargo Receptor Essential for ER-Phagy and Pancreatic ER Proteostasis” (Developmental Cell, 2018).

Target: T1, GST-CCPG1 NTD (bacterial) (1-230) (human, UniProt Q9ULG6 1-230)
T1 construct: CCPG1, human, N-terminal amino acids 1-230 (NTD); source: E. coli Rosetta II (DE3), pre-purified on glutathione Sepharose beads
T1 sequence (looked up): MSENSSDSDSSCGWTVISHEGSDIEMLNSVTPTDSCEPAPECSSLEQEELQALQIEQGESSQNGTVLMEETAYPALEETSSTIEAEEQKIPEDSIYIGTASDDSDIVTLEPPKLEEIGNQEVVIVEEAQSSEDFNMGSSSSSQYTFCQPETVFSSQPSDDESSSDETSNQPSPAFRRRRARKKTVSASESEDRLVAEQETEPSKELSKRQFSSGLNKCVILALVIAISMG
Test: pull-down; GST-CCPG1 NTD pre-purified on glutathione Sepharose beads, incubated with purified recombinant protein (His-GABARAP or His-FIP200) in IGEPAL IP buffer, 4°C; immunoblot
Settings: both partners purified

B1: His-GABARAP (natural protein, human, UniProt O95166 1-117, looked up)
chain: MKFVYKEEHPFEKRRSEGEKIRKKYPDRVPVIVEKAPKARIGDLDKKKYLVPSDLTVGQFYFLIRKRIHLRAEDALFFFVNNVIPPTSATMGQLYQEHHEEDFFLYIAYSDESVYGL
notes: GABARAP, human ATG8 ortholog; also called purified, recombinant His-GABARAP; source: recombinant, purified
binding result: binds
